# Reference: patent US20180280504A1, “GLYCAN-INTERACTING COMPOUNDS AND METHODS OF USE” (SIAMAB THERAPEUTICS, INC., priority 2014, published 2018)
# B1: 7G9: anti-STn mouse monoclonal, IgG2b κ, from mouse #4407; VH SEQ ID NO: 12, VL SEQ ID NO: 9 (antibody, V domains shown)
# VH: QVQLKESGPGLVAPSQNLSITCTVSGFSLTSYGVNWVRQPPGKGLEWLGVIWGDGSTNYHSALISRLIISKENSKSQVFLKLNSLQTNDTATYYCTKGFVYWGQGTLVTVSA
# VL: QIVLTQSPAIMSASPGEKVTMTCSASSSVSYMHWYQQKSGTSPKRWIFDTSKLASGVPARFSGSGSGTSYSLTISSMEAEDAATYYCQQWSSNLLTFGAGTKLELK
# Tests used:
# [1] = tested on: STn on bovine submaxillary mucin (BSM); assay: Anti-STn BSM ELISA, non-treated and periodate-treated wells; type: binding; details: BSM ELISA without and after periodate treatment
# Method: Anti-STn serum titer is determined using a murine anti-STn bovine submaxillary mucin (BSM) ELISA together with serum profiles observed by glycan microarray. 96-well plates are coated with 1 μg/well of BSM and incubated overnight at 4° C. O-acetylation of BSM antigen is removed by treating wells with 0.1 M sodium hydroxide. Specific binding to STn is determined by treatment of wells with sodium periodate. Periodate treatment destroys the […] side chain of sialic acid; therefore antibodies raised against STn should not bind to periodate-treated wells. Wells are blocked with PBS 1% ovalbumin (OVA). Serum samples to be assayed are serially diluted in PBS 1% OVA. A commercially available mouse anti-STn monoclonal antibody, 3F1 (SBH Sciences, Natick, Mass.) is used as a positive control. This antibody is also serially diluted in PBS with 1% OVA. A pool of serum from naïve wild type mice is used for the preparation of negative control samples. Detection of anti-STn antibodies present in serum is determined using an HRP-conjugated polyclonal goat anti-mouse IgG antibody (Jackson Immunoresearch, West Grove, Pa.). The reaction is stopped by addition of sulfuric acid (1.6 M). Optical densities are measured at 490 nm using a Spectramax microplate reader (Molecular Devices, Sunnyvale, Calif.). The serum titer is obtained by comparison of OD values with a cutoff value calculated as two standard deviations above the mean of optical density values of the negative control. Sample tests are considered positive if the mean optical density value is greater than the cutoff value.
# Binding affinities of 18D2 and 18C7 to STn were compared to commercially available anti-STn antibodies using the BSM ELISA assay described in Example 2. Commercial anti-STn antibodies used for comparison included 3F1 (SBH Sciences, Natick, Mass.,) TAG-72 clone B72.3 (Thermo Fisher Scientific, Waltham, Mass.,) TAG-72 clone CC49 (Santa Cruz Biotechnology, Santa Cruz, Calif.) as well as a negative control antibody against c-myc (Thermo Fisher Scientific, Waltham, Mass.). Each antibody was titrated using a 7-point, 1:5 serial dilution starting from 100 nM. Titrated antibodies were added to BSM ELISA plates containing wells that were non-treated or treated with sodium periodate. Antibody binding was determined using HRP-conjugated polyclonal goat anti-mouse IgG antibody (Jackson Immunoresearch Laboratories, West Grove, Pa.). The reaction was developed using an HRP substrate and stopped with 1.6 M sulfuric acid. Optical densities were measured at 490 nm using a Spectramax microplate reader. […] The half maximal effective concentration (EC50) for each antibody was calculated using a non-linear regression analysis carried out on periodate subtracted data.
# [2] = tested on: MDA-MB-231 cells expressing cell-surface Neu5Ac-STn; assay: Flow cytometry assay to quantify antibody internalization; type: cell-based, human; details: for % cells exhibiting 488 fluorescence: 4° C.
# Method: For analysis, stably transfected variants of MDA-MB-231 cells (clone TAH3.P10) that express high levels of cell surface-bound Neu5Ac-STn are harvested using 10 mM EDTA and washed with PBS comprising 1% BSA before pelleting by light centrifugation. Cell numbers and viability are determined by trypan blue dye exclusion analysis and cell concentrations are adjusted to 5×10^6 cells/ml in PBS with 1% BSA. 50 μl of cells are added to each well of an assay plate. Cells are combined with 50 μl solutions of antibody or fluorescently-labeled antibody and incubated for 1 hour at 4° C. Following this incubation period, cells are washed with PBS to remove unbound antibody and aliquots are removed for incubation for various times (15, 30, 60 minutes) at 37° C. to allow bound antibody to internalize at a physiologically relevant temperature. After each incubation, cell surface-bound antibody is removed by treating cells with acidic medium (150 mM NaCl, pH=2.5) Cells treated with unlabeled antibody are washed with PBS and fixed with paraformaldehyde fixation buffer (PFA) containing 3% paraformaldehyde and 2% sucrose in PBS for 15 minutes at room temperature. These cells are rinsed again in PBS and treated with blocking buffer made up of PBS with 1% bovine serum albumin (BSA). Cells are incubated for 30 min at room temperature, rinsed in PBS and treated with secondary antibody (allophycocyanin-labeled goat-anti-mouse IgG) for 2 hours at room temperature. All cells are then washed with PBS and subjected to flow cytometry analysis wherein 10,000 events are recorded for each sample. Residual fluorescent signal in acid-treated samples is further quenched via treatment with trypan blue dye.
# Flow cytometry analysis was carried out in order to quantify the extent of antibody internalization according to the procedure of Example 15. MDA-MB-231 cells expressing high levels of cell-surface bound Neu5Ac-STn were harvested using StemPro Accutase buffer and washed with PBS comprising 5% FBS before pelleting by light centrifugation. Cell numbers and viability were determined by trypan blue dye exclusion analysis and cell concentrations were adjusted to 5×10^6 cells/ml in PBS with 5% FBS. 50 μl of cells were added to each well of an assay plate. Cells were then combined with 50 μl solutions of antibody S3F or ALEXA FLUOR® 488-conjugated antibodies S3F, 7G9 or GB26.6 and incubated for 1 hour at 4° C. Following this incubation period, cells were washed with PBS to remove unbound antibody and aliquots were removed for incubation for various times (15, 30, 60 minutes) at 37° C. After each incubation, cells were treated with acidic medium (150 mM NaCl, pH=2.5) to remove surface-bound antibody. Cells treated with unlabeled S3F were washed with PBS 5% FCS. Secondary antibody (allophycocyanin-labeled goat-anti-mouse IgG) was added to the cells and incubated for 30 min at 4° C., rinsed in PBS 5% FBS and kept on ice until flow cytometry analysis. All cells were then washed with PBS and subjected to flow cytometry analysis wherein 10,000 events were recorded for each sample.
# Culturing and harvesting of MDA-STn+ cells was performed according to Example 14. Staining of MDA-STn+ cells with S3F antibody included either unlabeled S3F or S3F directly labeled with ALEXA FLUOR® 488 (Thermo Fisher Scientific, Pittsburgh, Pa.). Stained control vials were kept at 4° C. until analysis was performed. Controls included a GB26.6 antibody negative control for STn binding, unstained control, and unlabeled S3F antibody followed by an APC secondary antibody. Vials for each experimental time point (15, 30 and 60 min) were incubated in complete media at 37° C. 5% CO2 to allow for antibody internalization. Immediately prior to analysis by flow cytometry, non-internalized antibody was stripped from the cell surface of experimental samples using 150 mM NaCl pH 2.5 (acidic buffer).
molecule,measurement,setting,value
B1,hybridoma screening: specificity for STn,[1],specific for STn
same,% cells exhibiting 488 fluorescence,"[2]; ALEXA FLUOR 488-conjugated antibody, acid",approximately 70%
same,% cells exhibiting 488 fluorescence,"[2]; ALEXA FLUOR 488-conjugated antibody, no acid",approximately 80%
same,% fluorescent cells prior to acid treatment and trypan blue exposure,"[2]; ALEXA FLUOR 488-conjugated antibody, 37° C. for various times",60-80%
same,% of cells exhibiting fluorescence after acidic buffer and trypan blue,"[2]; ALEXA FLUOR 488-conjugated antibody, 37° C., trypan blue quench of surface signal",20-45%
same,% fluorescent cells after trypan blue,"[2]; ALEXA FLUOR 488-conjugated antibody, stained at 4° C., trypan blue",less than 20%
same,internalization (conclusion),[2]; Neu5Ac-STn-overexpressing MDA-MB-231 cells,successfully internalized
